Experimental data as given in PMC6969036 (Nature Communications, 2020).

B1: STAND-A36 (s3Flag-scFv-A36-HA) expressed in 293T cells (scFv, V domains shown)
VH: QVQLQQSGAELVRPGALVKLSCKASGFNIEDYYLHWVKQRPAQGLEWIGGIDPENGIAIYDSKFQGKASITADTSSNTAYLQLSSLTSEDTAVYYCATSEDSFDVWGQGTTVTVS
VL: DIELTQSPATMAASPGEKITITCSASSSISSNYLHWYQQKPGFSPKLLIYRTSNLASGVPARFSGSGSGTSYSLTIGTMEAEDVATYYCQQGSSIPLTFGAGTKLEIK
B2: STAND-A36 (s3Flag-scFv-A36-HA), purified from E. coli (scFv, V domains shown)
VH: B1 VH
VL: B1 VL
notes: scFv-A36: VH-(Gly4-Ser)3 linker-VL, from the spleen of Balb/c mice immunised with GST-Syt II-C2A (phage display); s3Flag-scFv-HA constructs were synthesised and codon-optimised (Genscript); also called s3Flag-A36-HA; purified STAND-A36
B3: scFv-T7-A36 (scFv-A36 fused with T7- and His-tags), purified from E. coli (scFv, V domains shown)
VH: B1 VH
VL: B1 VL
notes: scFv-A36: VH-(Gly4-Ser)3 linker-VL; source: E. coli, purified under non-denaturing conditions (Probond nickel-chelating resin); not shown: T7, N-terminal, kept; His6, C-terminal, kept

Assays:
[1] = molecular target: Syt I (synaptotagmin I) expressed in 293T cells (UniProt P46096); assay: cell-based or functional assay
Sequence of Syt I (synaptotagmin I) expressed in 293T cells (P46096 whole entry, the tested form may be a part): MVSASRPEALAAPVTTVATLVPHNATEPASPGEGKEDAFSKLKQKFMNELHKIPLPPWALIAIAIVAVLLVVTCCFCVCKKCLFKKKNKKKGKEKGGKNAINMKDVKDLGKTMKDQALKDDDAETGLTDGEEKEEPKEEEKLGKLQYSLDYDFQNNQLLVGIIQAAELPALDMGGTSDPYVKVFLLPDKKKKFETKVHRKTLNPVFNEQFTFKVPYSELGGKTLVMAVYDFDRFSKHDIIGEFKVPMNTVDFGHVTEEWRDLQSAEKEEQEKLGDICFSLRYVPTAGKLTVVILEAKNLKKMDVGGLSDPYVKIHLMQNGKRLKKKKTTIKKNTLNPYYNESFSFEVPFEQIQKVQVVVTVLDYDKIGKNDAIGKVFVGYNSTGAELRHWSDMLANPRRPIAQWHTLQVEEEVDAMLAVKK

[2] = molecular target: T1, GST-Syt I-C2A (C2A domain of synaptotagmin I fused to glutathione S-transferase) (Mus musculus (assumed), UniProt P46096); assay: ELISA; GST-Syt I-C2A (0.25 pmol) coated on wells in PBS, 16 h 24 °C; blocked with 5% skim milk in PBS with 0.1% Tween 20; purified scFv (0.22-36 nM STAND-A36, 1.17-1800 nM scFv-T7-A36, 3.77-601 nM scFv-GFPA36) 2 h at 24 °C; detected with anti-Flag or anti-His; binding to GST wells subtracted; Kd from Hill-Langmuir fit; details: both partners purified
T1 construct: synaptotagmin I, C2A domain; its full-length Syt vectors are mouse; also called GST-C2A; source: purified

[3] = molecular target: T2, GST-Syt I-C2B (C2B domain of synaptotagmin I fused to GST) (Mus musculus (assumed), UniProt P46096); assay: ELISA; purified STAND-A36 on the indicated GST-fused proteins (GST-C2A, GST-C2B, GST); absorbance, n = 3; details: both partners purified
T2 construct: synaptotagmin I, C2B domain; also called GST-C2B; source: purified
T2 sequence (P46096 whole entry, looked up, the tested form may be a part): as the sequence (P46096 whole entry, the tested form may be a part) above

Binder	basal dopamine release in the striatum of mice expressing STAND-A36 (microdialysis), inhibition relative to mice expressing STAND-M4 [1] [%]	high potassium (60 mM)-induced dopamine release in cultured dopamine neurons infected with AAV1-STAND-A36, relative to STAND-M4 [1] [%]	Kd [2] [nM]	binding result [3]
B1	55.3	79.3	–	–
B2	–	–	12.2	no binding
B3	–	–	341	–
